Like-named read-outs stand apart in the source and are kept apart here.
What was measured:
[1] = molecular target: T1, human CLDN18.2 on tumor cells (NUGC-4; DAN-G-hCLDN18.2) (human, UniProt P56856-2 1-261); assay: cell-based or functional assay
T1 sequence (looked up): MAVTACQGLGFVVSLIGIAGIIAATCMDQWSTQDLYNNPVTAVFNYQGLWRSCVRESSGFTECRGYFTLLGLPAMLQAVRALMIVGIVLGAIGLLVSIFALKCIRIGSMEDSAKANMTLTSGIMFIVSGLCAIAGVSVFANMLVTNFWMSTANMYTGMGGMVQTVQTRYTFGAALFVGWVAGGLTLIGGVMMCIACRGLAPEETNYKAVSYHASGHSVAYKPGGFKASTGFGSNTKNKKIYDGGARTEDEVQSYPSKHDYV

[2] = molecular target: T2, human CD3 E&D complex protein (Sino Biological Inc., CT026H0323H) (human, UniProt P07766 23-126; P04234 22-105); assay: BLI, antibody on sensor
T2 construct: bought heterodimer; also called human CD3 protein (CT026H0323H)
Experimental: The equilibrium dissociation constant (KD) of the bispecific antibody of the invention binding to human CD3 protein was determined by the Biolayer Interferometry (BLI). The affinity determination of BLI method was carried out according to the existing methods (Estep, P et al., High throughput solution based measurement of antibody-antigen affinity and affinity binding. MAbs, 2013.5 (2): 270-8).
An appropriate number of AHC (18-5060, Fortebio) sensors was taken and soaked in SD buffer (1×PBS, BSA 0.1%, Tween-20 0.05%) according to the number of samples at half an hour before the experiment. 100 μl of SD buffer, each bispecific antibody and human CD3 protein (CT026H0323H, Sino Biological Inc.) were added into 96-well black polystyrene semi-quantitative micro-well plate (Greiner, 675076). Fortebio Octet Red96 was used for detection, and the sensor position was selected according to the sample position. The setting parameters of the instrument were as follows: operation steps: Baseline, Loading-1 nm, Baseline, Association and Dissociation; the operation time of each step depended on the speed of sample combination and dissociation. The rotational speed was 1000 rpm and the temperature was 30° C. ForteBio Octet analysis software was used to analyze KD value.

[3] = molecular target: T3, human Claudin 18.2 (GenScrip, P50251802) (human, UniProt P56856-2 1-261, limits assumed); assay: SPR, antigen on chip
T3 construct: bought antigen coupled to the chip; also called human CLDN18.2; CLDN18.2
T3 sequence (looked up): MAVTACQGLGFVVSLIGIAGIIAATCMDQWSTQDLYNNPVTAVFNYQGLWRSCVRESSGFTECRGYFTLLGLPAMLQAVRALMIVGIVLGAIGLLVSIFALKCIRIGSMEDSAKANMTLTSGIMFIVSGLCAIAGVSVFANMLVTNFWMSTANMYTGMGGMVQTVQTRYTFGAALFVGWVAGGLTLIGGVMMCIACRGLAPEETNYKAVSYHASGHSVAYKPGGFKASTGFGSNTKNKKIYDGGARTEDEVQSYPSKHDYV
Experimental: The equilibrium dissociation constant (KD) of binding to human CLDN18.2 was determined by surface plasma resonance (SPR). […] After coupling, 1 M ethanolamine was injected to block the remaining activation sites. According to the manufacturer's instructions, the binding and dissociation between the chip surface antigen and various bispecific antibodies in the mobile phase were detected by Biacore (GE Healthcare, T200) to obtain the affinity and kinetic constants. The antibody after serial dilution (0-100 nM, twice dilution) flowed through the chip surface in order from low concentration to high concentration, with binding time of 180 s and dissociation time of 600 s. Finally, 10 mM Glycine pH 1.5 (GE Healthcare, BR-1003-54) was used to regenerate the chip. The resulting data were analyzed using the Biacore T200 analysis software and the 1:1 combination model.

[4] = molecular target: T2, human CD3 E&D complex protein (Sino …); assay: BLI, antibody on sensor; remark: listed apart in the source
[5] = molecular target: T4, human CD3E&G complex (Sino Biological Inc., CT041-H0305H) (human, UniProt P07766 23-126; P09693 23-116); assay: BLI, antibody on sensor
T4 construct: bought heterodimer; also called human CD3E&G antigen

[6] = molecular target: T5, human CD3 complex on Jurkat cells (human, UniProt P07766 23-207; P04234 22-171; P09693 23-182); assay: flow cytometry on Jurkat cells (human CD3 complex), method of Example 3.2
T5 construct: whole, on cells; natural CD3 complex of Jurkat T cells (also used here for CD3 on T cells of human PBMC); also called human CD3 at the cell level; CD3 on T cells
Experimental: (§1) Jurkat cells are immortalized human T lymphocytes, which express human CD3 complex. The cell line is used to detect the binding of the antibody to the cell. The detailed operation was as follows: Jurkat cells (Promega, J1621) was inoculated into U-shaped 96-well plate, 2×10⁵ for each well. The antibodies to be detected at a series of concentration gradients (the initial concentration of antibody molecule is 500 nM, 3 folds serial dilution) was added into the corresponding cell well, incubated at 4° C. for 30 minutes, and then PBS was used to wash out the unbound part. The sheep anti-human Fc PE fluorescent second antibody (Southern Biotech, J2815-5H87B) was added, then incubated at 4° C. for 15 minutes. and detected by flow cytometry ([…] BD). […] Some of these antibodies were selected to make a further binding curve at cell level.

[7] = molecular target: T5, human CD3 complex on Jurkat cells; assay: flow cytometry on Jurkat cells (human CD3 complex), 'Jurkat cell line binding', method of Example 3.2
Experimental: as §1

[8] = molecular target: T2, human CD3 E&D complex protein (Sino …); assay: BLI, antibody on sensor; remark: listed apart in the source
[9] = molecular target: T6, cynomolgus monkey CD3 E&D complex protein (Sino Biological Inc., CT032-00323H) (cynomolgus monkey, UniProt Q95LI5 22-117; Q95LI8 22-105); assay: BLI, antibody on sensor
T6 construct: bought heterodimer

[10] = molecular target: T5, human CD3 complex on Jurkat cells; assay: flow cytometry on Jurkat cells (human CD3 complex), 'Jurkat cell line binding', Example 3.2 [cont) D]
Experimental: as §1

T2 sequence (P07766 23-126, chain 1 of 2): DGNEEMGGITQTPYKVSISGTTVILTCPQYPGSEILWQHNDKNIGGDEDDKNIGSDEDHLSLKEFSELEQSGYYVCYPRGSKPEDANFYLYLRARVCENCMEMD
T2 sequence (P04234 22-105, chain 2 of 2): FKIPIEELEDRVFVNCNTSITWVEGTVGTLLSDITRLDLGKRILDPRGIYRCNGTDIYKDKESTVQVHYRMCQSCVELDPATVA
T4 sequence (P07766 23-126, chain 1 of 2): as the sequence (P07766 23-126, chain 1 of 2) above
T4 sequence (P09693 23-116, chain 2 of 2): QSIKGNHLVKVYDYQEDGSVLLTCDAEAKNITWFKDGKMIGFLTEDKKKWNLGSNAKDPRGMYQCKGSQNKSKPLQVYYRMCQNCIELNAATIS
T6 sequence (Q95LI5 22-117, chain 1 of 2): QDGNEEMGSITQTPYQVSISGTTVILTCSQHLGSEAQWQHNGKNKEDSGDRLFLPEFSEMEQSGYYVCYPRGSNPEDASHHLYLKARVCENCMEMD
T6 sequence (Q95LI8 22-105, chain 2 of 2): as the sequence (P04234 22-105, chain 2 of 2) above, with I5V, N15K, I20V, S32T, D33N, I34N, T64A, S74N, V83L counted along it
T5 sequence (P07766 23-207, chain 1 of 3): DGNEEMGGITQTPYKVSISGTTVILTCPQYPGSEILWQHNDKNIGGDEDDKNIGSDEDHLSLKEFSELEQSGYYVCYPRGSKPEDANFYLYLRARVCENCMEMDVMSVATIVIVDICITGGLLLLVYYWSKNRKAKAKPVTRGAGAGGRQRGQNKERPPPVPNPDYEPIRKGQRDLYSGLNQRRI
T5 sequence (P04234 22-171, chain 2 of 3): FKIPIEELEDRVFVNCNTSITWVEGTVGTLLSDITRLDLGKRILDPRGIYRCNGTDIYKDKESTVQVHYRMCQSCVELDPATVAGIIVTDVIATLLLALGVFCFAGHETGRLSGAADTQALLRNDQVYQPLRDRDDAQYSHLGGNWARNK
T5 sequence (P09693 23-182, chain 3 of 3): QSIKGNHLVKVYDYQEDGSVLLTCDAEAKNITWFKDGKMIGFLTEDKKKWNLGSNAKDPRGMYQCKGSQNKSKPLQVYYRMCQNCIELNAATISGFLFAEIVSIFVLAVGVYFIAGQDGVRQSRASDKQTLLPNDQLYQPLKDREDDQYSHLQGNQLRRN

Binder | Kd [2] [nM] | koff [2] [s⁻¹] | kon [2] [M⁻¹ s⁻¹] | Kd [3] [nM] | EC50 (read off the curve) [7] [nM] | Kd [4] [nM] | koff [4] [s⁻¹] | kon [4] [M⁻¹ s⁻¹] | Kd [5] [nM] | koff [5] [s⁻¹] | kon [5] [M⁻¹ s⁻¹] | further results
030 (bispecific antibody, human IgG1, kappa, lambda, L234A L235A, 1+1, IgG1 LALA knob-into-hole; also called CLDN18.2xCD3 bispecific antibody 030; HB37A6 x HzSP34.24) heavy 1: not shown light 1: not shown heavy 2: not shown light 2: QAVVTQEPSLTVSPGGTVTLTCRSSTGAVTTSNYANWVQQKPGQAPRGLIGGTNKRAPGVPARFSGSLLGDKAALTLLGAQPEDEAEYYCALWYSNLWVFGQGTKLTVLGQPKAAPSVTLFPPSSEELQANKATLVCLISDFYPGAVTVAWKADSSPVKAGVETTTPSKQSNNKYAASSYLSLTPEQWKSHRSYSCQVTHEGSTVEKTVAPTECS | 7.46 | 0.00516 | 693000 | 0.576 | – | – | – | – | – | – | – | EC50 of killing of DAN-G-hCLDN18.2 cells by PBMC [1]: < 0.1 pM; EC50 of killing of NUGC-4 cells by PBMC [1]: < 0.001 nM; koff [3]: 0.0002 s⁻¹; kon [3]: 347000 M⁻¹ s⁻¹
033 (bispecific antibody, human IgG1, kappa, lambda, L234A L235A, 1+1, IgG1 LALA knob-into-hole; also called CLDN18.2xCD3 bispecific antibody 033; HB37A6 x HzSP34.97) heavy 1: not shown light 1: not shown heavy 2: not shown light 2: QAVVTQEPSLTVSPGGTVTLTCRSSTGAVTTSNYANWVQQKPGQAPRGLIGGTNKRAPGVPARFSGSLLGDKAALTLLGAQPEDEAEYYCALWYSNLWVFGQGTKLTVLGQPKAAPSVTLFPPSSEELQANKATLVCLISDFYPGAVTVAWKADSSPVKAGVETTTPSKQSNNKYAASSYLSLTPEQWKSHRSYSCQVTHEGSTVEKTVAPTECS | 446 | 0.169 | 379000 | 0.57 | – | – | – | – | – | – | – | –
032 (bispecific antibody, human IgG1, kappa, lambda, L234A L235A, 1+1, IgG1 LALA knob-into-hole; also called CLDN18.2xCD3 bispecific antibody 032; HB37A6 x HzSP34.87) heavy 1: not shown light 1: not shown heavy 2: not shown light 2: QAVVTQEPSLTVSPGGTVTLTCRSSTGAVTTSNYANWVQQKPGQAPRGLIGGTNKRAPGVPARFSGSLLGDKAALTLLGAQPEDEAEYYCALWYSNLWVFGQGTKLTVLGQPKAAPSVTLFPPSSEELQANKATLVCLISDFYPGAVTVAWKADSSPVKAGVETTTPSKQSNNKYAASSYLSLTPEQWKSHRSYSCQVTHEGSTVEKTVAPTECS | 89.1 | 0.0718 | 807000 | 0.57 | – | – | – | – | – | – | – | EC50 of killing of DAN-G-hCLDN18.2 cells by PBMC [1]: < 0.1 pM; EC50 of killing of NUGC-4 cells by PBMC [1]: < 0.001 nM
hzsp34.95 (antibody, human IgG1, lambda, L234A L235A, V domains shown, CDR mutant of hzsp34.24; IgG1 L234A L235A, lambda) VH: EVQLVESGGGLVQPGGSLKLSCAASGFTFSGSAMNWVRQASGKGLEWVGRIRSKYNNYATYYADSVKDRFTISRDDSKSTLYLQMNSLKTEDTAVYYCARHGNFGQSYVSWFAYWGQGTTVTVSS VL: QAVVTQEPSLTVSPGGTVTLTCRSSTGAVTTSNYANWVQQKPGQAPRGLIGGTNKRAPGVPARFSGSLLGDKAALTLLGAQPEDEAEYYCALWYSNLWVFGQGTKLTVLG | – | – | – | – | – | – | – | – | – | – | – | binding result [4]: no binding; binding result [5]: no binding; binding result [6]: no binding (tested: 900 (no unit printed on the sheet))
hzsp34.97 (antibody, human IgG1, lambda, L234A L235A, V domains shown, CDR mutant of hzsp34.24; IgG1 L234A L235A, lambda) VH: EVQLVESGGGLVQPGGSLKLSCAASGFTFNTYAMNWVRQASGKGLEWVGRIRSKAGGYATYYADSVKDRFTISRDDSKSTLYLQMNSLKTEDTAVYYCARHGNFGQSYVSWFAYWGQGTTVTVSS VL: QAVVTQEPSLTVSPGGTVTLTCRSSTGAVTTSNYANWVQQKPGQAPRGLIGGTNKRAPGVPARFSGSLLGDKAALTLLGAQPEDEAEYYCALWYSNLWVFGQGTKLTVLG | – | – | – | – | ~2 | 5.62 | 0.00156 | 278000 | 11 | 0.00148 | 135000 | –
hzsp34.116 (antibody, human IgG1, lambda, L234A L235A, V domains shown, CDR mutant of hzsp34.24; IgG1 L234A L235A, lambda) VH: EVQLVESGGGLVQPGGSLKLSCAASGFTFNTYAMNWVRQASGKGLEWVGRIRSKYNNYATYYADSVKDRFTISRDDSKSTLYLQMNSLKTEDTAVYYCARHGNFGQSYVSWFAYWGQGTTVTVSS VL: QAVVTQEPSLTVSPGGTVTLTCRSSTGAVTTSNYANWVQQKPGQAPRGLIGGTNSRAPGVPARFSGSLLGDKAALTLLGAQPEDEAEYYCALWYSDLWVFGQGTKLTVLG | – | – | – | – | ~4 | 4.11 | 0.000914 | 223000 | 16 | 0.00286 | 179000 | –
hzsp34.96 (antibody, human IgG1, lambda, L234A L235A, V domains shown, CDR mutant of hzsp34.24; IgG1 L234A L235A, lambda) VH: EVQLVESGGGLVQPGGSLKLSCAASGFTFNTYAMNWVRQASGKGLEWVGRISLKYNNYATYYADSVKDRFTISRDDSKSTLYLQMNSLKTEDTAVYYCARHGNFGQSYVSWFAYWGQGTTVTVSS VL: QAVVTQEPSLTVSPGGTVTLTCRSSTGAVTTSNYANWVQQKPGQAPRGLIGGTNKRAPGVPARFSGSLLGDKAALTLLGAQPEDEAEYYCALWYSNLWVFGQGTKLTVLG | – | – | – | – | – | – | – | – | – | – | – | binding result [4]: no binding; binding result [5]: no binding; binding result [6]: no binding (tested: 900 (no unit printed on the sheet))
sp34 (antibody, human IgG1, lambda, L234A L235A, V domains shown, mouse variable regions on human IgG1 L234A L235A and lambda constant regions; also called chimeric antibody sp34; mouse sp34) VH: EVQLVESGGGLVQPKGSLKLSCAASGFTFNTYAMNWVRQAPGKGLEWVARIRSKYNNYATYYADSVKDRFTISRDDSQSILYLQMNNLKTEDTAMYYCVRHGNFGNSYVSWFAYWGQGTLVTVSS VL: QAVVTQESALTTSPGETVTLTCRSSTGAVTTSNYANWVQEKPDHLFTGLIGGTNKRAPGVPARFSGSLIGDKAALTITGAQTEDEAIYFCALWYSNLWVFGGGTKLTVLG | – | – | – | – | ~0.5 | 0.638 | 0.000157 | 246000 | 6.22 | 0.00149 | 240000 | Kd [8]: 0.932 nM; koff [8]: 0.0019 s⁻¹; kon [8]: 2.04e+06 M⁻¹ s⁻¹; Kd [9]: 0.646 nM; koff [9]: 0.000795 s⁻¹; kon [9]: 1.23e+06 M⁻¹ s⁻¹; EC50 [10]: 2 nM
